Legend:
Details in all cases: 10 mM ATP, 14 mM MgCl2, 100 mM KCl, pH 8.0, 25 °C
[1] = target: Cj1418 (L-glutamine kinase) (Campylobacter jejuni, UniProt Q0P8J6)
N[C@@H](CCC(=O)NO)C(=O)O = experiment: purified protein
NC(=O)CC[C@@H](N)C(=O)O = experiment: purified protein
NNC(=O)CC[C@H](N)C(=O)O = experiment: purified protein

Sequence of Cj1418 (L-glutamine kinase) (Q0P8J6 whole entry): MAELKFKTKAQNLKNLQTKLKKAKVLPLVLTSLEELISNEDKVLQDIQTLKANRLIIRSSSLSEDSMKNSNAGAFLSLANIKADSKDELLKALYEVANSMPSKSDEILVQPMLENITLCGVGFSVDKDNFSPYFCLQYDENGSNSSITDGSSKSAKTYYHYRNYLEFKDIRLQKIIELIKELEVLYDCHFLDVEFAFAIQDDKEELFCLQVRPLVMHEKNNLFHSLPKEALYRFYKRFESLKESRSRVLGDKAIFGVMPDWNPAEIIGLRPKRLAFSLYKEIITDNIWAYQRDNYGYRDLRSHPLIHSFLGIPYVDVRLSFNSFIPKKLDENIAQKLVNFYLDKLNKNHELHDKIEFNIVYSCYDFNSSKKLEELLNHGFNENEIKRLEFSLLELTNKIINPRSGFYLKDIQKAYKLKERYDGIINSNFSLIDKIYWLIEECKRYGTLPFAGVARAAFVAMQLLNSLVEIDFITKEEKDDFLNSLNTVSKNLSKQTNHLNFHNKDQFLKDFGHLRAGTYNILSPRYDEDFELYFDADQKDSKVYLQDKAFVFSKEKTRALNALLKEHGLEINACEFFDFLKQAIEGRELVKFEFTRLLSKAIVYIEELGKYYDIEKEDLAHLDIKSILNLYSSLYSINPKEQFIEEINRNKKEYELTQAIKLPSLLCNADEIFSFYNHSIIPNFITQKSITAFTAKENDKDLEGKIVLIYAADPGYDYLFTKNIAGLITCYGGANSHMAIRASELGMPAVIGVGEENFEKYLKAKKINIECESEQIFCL

NC(=O)CC[C@H](N)C(=O)O [compound 1, L-glutamine]
Km [1]: 640 ± 60 µM

Cj1418 (L-glutamine kinase) (Campylobacter jejuni subsp. jejuni NCTC 11168 = ATCC 700819)
Km (N[C@@H](CCC(=O)NO)C(=O)O): 1500 ± 400 µM | kcat (N[C@@H](CCC(=O)NO)C(=O)O): 2.1 ± 0.2 s⁻¹ | kcat/Km (N[C@@H](CCC(=O)NO)C(=O)O): 1400 ± 360 M⁻¹ s⁻¹ | Km (NC(=O)CC[C@@H](N)C(=O)O): 10500 ± 1800 µM | kcat (NC(=O)CC[C@@H](N)C(=O)O): 1.5 ± 0.1 s⁻¹ | kcat/Km (NC(=O)CC[C@@H](N)C(=O)O): 140 ± 30 M⁻¹ s⁻¹ | Km (NNC(=O)CC[C@H](N)C(=O)O): 17200 ± 3800 µM | kcat (NNC(=O)CC[C@H](N)C(=O)O): 0.41 ± 0.05 s⁻¹ | kcat/Km (NNC(=O)CC[C@H](N)C(=O)O): 24 ± 6 M⁻¹ s⁻¹

— article PMC6643271 (Biochemistry, 2018)
